Measurements taken from article doi:10.1101/343046 (bioRxiv, 2018).

T1: GST-KBP (Kinesin-Binding Protein) (human, UniProt Q96EK5 1-621)
T1 sequence (looked up): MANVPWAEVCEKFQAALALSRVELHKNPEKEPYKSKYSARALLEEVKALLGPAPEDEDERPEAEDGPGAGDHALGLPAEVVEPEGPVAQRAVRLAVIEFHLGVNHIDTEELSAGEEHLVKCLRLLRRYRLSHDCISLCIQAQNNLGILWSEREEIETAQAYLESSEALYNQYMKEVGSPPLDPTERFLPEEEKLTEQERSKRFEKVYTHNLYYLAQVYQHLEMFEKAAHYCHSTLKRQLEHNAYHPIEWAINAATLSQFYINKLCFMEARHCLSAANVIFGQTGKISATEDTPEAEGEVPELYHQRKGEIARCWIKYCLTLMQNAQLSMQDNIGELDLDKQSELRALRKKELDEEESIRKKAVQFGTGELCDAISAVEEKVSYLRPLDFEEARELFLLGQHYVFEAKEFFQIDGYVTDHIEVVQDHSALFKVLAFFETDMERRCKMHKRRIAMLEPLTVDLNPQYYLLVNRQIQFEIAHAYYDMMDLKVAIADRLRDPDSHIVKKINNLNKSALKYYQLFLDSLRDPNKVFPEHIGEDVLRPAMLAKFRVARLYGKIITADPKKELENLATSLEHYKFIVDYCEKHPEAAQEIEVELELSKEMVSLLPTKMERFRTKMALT


Target: T1, GST-KBP (Kinesin-Binding Protein)
Assay: pull-down

binding result	Binder
binds	His6-KIF15-N420 (domain or fragment, human, UniProt Q9NS87 1-420, looked up) MAPGCKTELRSVTNGQSNQPSNEGDAIKVFVRIRPPAERSGSADGEQNLCLSVLSSTSLRLHSNPEPKTFTFDHVADVDTTQESVFATVAKSIVESCMSGYNGTIFAYGQTGSGKTFTMMGPSESDNFSHNLRGVIPRSFEYLFSLIDREKEKAGAGKSFLCKCSFIEIYNEQIYDLLDSASAGLYLREHIKKGVFVVGAVEQVVTSAAEAYQVLSGGWRNRRVASTSMNRESSRSHAVFTITIESMEKSNEIVNIRTSLLNLVDLAGSERQKDTHAEGMRLKEAGNINRSLSCLGQVITALVDVGNGKQRHVCYRDSKLTFLLRDSLGGNAKTAIIANVHPGSRCFGETLSTLNFAQRAKLIKNKAVVNEDTQGNVSQLQAEVKRLKEQLAELASGQTPPESFLTRDKKKTNYMEYFQE
binds	KIF18A-N480-GFP-His6 (domain or fragment, human, UniProt Q8NI77 1-480, looked up) MSVTEEDLCHHMKVVVRVRPENTKEKAAGFHKVVHVVDKHILVFDPKQEEVSFFHGKKTTNQNVIKKQNKDLKFVFDAVFDETSTQSEVFEHTTKPILRSFLNGYNCTVLAYGATGAGKTHTMLGSADEPGVMYLTMLHLYKCMDEIKEEKICSTAVSYLEVYNEQIRDLLVNSGPLAVREDTQKGVVVHGLTLHQPKSSEEILHLLDNGNKNRTQHPTDMNATSSRSHAVFQIYLRQQDKTASINQNVRIAKMSLIDLAGSERASTSGAKGTRFVEGTNINRSLLALGNVINALADSKRKNQHIPYRNSKLTRLLKDSLGGNCQTIMIAAVSPSSVFYDDTYNTLKYANRAKDIKSSLKSNVLNVNNHITQYVKICNEQKAEILLLKEKLKAYEEQKAFTNENDQAKLMISNPQEKEIERFQEILNCLFQNREEIRQEYLKLEMLLKENELKSFYQQQCHKQIEMMCSEDKVEKATGKR
